Measured values from patent US20080152645A1 (ARMAGEN TECHNOLOGIES, published 2008).

Molecular target: T1, Aβ^1-40 amyloid peptide (human, UniProt P05067 672-711)
T1 construct: domain: Aβ^1-40; Plated on 96-well plates in ELISA and IRMA; also called Aβ^1-40 peptide; Aβ^1-40 aggregates
Experiment: ELISA on plated Aβ^1-40, COS cell medium, detection with biotinylated 9E10 MAb
Source text: FIG. 29. […] The mAβScFv binds to the amyloid peptide, and the 9E10 anti-c-myc MAb binds to the […] epitope fused to the carboxyl terminus of the protein (FIG. 9). The 9E10 MAb is biotinylated, which enables detection with a conjugate of streptavidin and peroxidase. Medium conditioned by COS cells that were transfected with pCD-mAβScFv produced a high signal in the assay, whereas medium from COS cells exposed only to Lipofectamine (LIPO) produced no signal.
The binding of the mAβScFv to the Aβ¹⁻⁴⁰ amyloid peptide was verified with a specific ELISA. The Aβ¹⁻⁴⁰ amyloid peptide was plated in 96-well plates, followed by the addition of the media conditioned by COS cells transfected with the pCD-mAβScFv plasmid and Lipofectamine-2000. The anti-A, ScFv contains a C-terminal 10-amino acid c-myc epitope, which is recognized by the 9E10 MAb (FIG. 29A). The 9E10 MAb is biotinylated, which enables quantitation of the […] binding to Aβ¹⁻⁴⁰ by a peroxidase detection system and A492 readings (FIG. 29A).

B1: mAβScFv, murine single chain Fv antibody against the Aβ peptide, secreted by COS cells transfected with pCD-mAβScFv (scFv)
scFv: QVQLQQSGAELVKPGATVKLSCKASGYSFNSHYIYWVKQRPGQGLEWIGEINPSNGAMNFNEKFKNKATLTVDKSSSTAYMQLSSLTSEDSAVYYCVRDPTSYWGQGTLVTVSAAKTTPKLEEGEFSEARVDIVMTQTPLSLPVSLGDQASISCRSSQSLVHSYGNTYLHWYLQKPGQSPKLLIYKVSNRFSGVPDRFSGSGSGTDFTLKISRVEAEDLGVYFCSQSTHVPYTFGGGTKLEIKRADAAAAGSEQKLISEEDL
notes: Tested as COS cell conditioned medium; No His tag in this construct; VL has Ile at position 2; also called anti-Aβ ScFv; anti-mAβScFv
- binding result: binds
